In patent publication US20170342167A1 (Hoffmann-La Roche, published 2017):

B1: IgG1 Fc-region with L234A/L235A/P329G and H310A/H433A/Y436A in both Fc-region polypeptides (other)
chain: DKTHTCPPCPAPEAAGGPSVFLFPPKPKDTLMISRTPEVTCVVVDVSHEDPEVKFNWYVDGVEVHNAKTKPREEQYNSTYRVVSVLTVLAQDWLNGKEYKCKVSNKALGAPIEKTISKAKGQPREPQVYTLPPSRDELTKNQVSLTCLVKGFYPSDIAVEWESNGQPENNYKTTPPVLDSDGSFFLYSKLTVDKSRWQQGNVFSCSVMHEALANHATQKSLSLSPGK
notes: As m2; Positions are EU numbers, not positions on the entry; also called HHY-AAA mutation
B2: IgG1 Fc-region with L234A/L235A/P329G and I253A/H435A in both Fc-region polypeptides (other)
chain: DKTHTCPPCPAPEAAGGPSVFLFPPKPKDTLMASRTPEVTCVVVDVSHEDPEVKFNWYVDGVEVHNAKTKPREEQYNSTYRVVSVLTVLHQDWLNGKEYKCKVSNKALGAPIEKTISKAKGQPREPQVYTLPPSRDELTKNQVSLTCLVKGFYPSDIAVEWESNGQPENNYKTTPPVLDSDGSFFLYSKLTVDKSRWQQGNVFSCSVMHEALHNAYTQKSLSLSPGK
notes: As m2; Positions are EU numbers, not positions on the entry
B3: IgG1 Fc-region with L234A/L235A/P329G and H310A/H435A in both Fc-region polypeptides (other)
chain: DKTHTCPPCPAPEAAGGPSVFLFPPKPKDTLMISRTPEVTCVVVDVSHEDPEVKFNWYVDGVEVHNAKTKPREEQYNSTYRVVSVLTVLAQDWLNGKEYKCKVSNKALGAPIEKTISKAKGQPREPQVYTLPPSRDELTKNQVSLTCLVKGFYPSDIAVEWESNGQPENNYKTTPPVLDSDGSFFLYSKLTVDKSRWQQGNVFSCSVMHEALHNAYTQKSLSLSPGK
notes: as for B2
B4: IgG1 Fc-region with L234A/L235A/P329G and I253A/H310A in both Fc-region polypeptides (other)
chain: DKTHTCPPCPAPEAAGGPSVFLFPPKPKDTLMASRTPEVTCVVVDVSHEDPEVKFNWYVDGVEVHNAKTKPREEQYNSTYRVVSVLTVLAQDWLNGKEYKCKVSNKALGAPIEKTISKAKGQPREPQVYTLPPSRDELTKNQVSLTCLVKGFYPSDIAVEWESNGQPENNYKTTPPVLDSDGSFFLYSKLTVDKSRWQQGNVFSCSVMHEALHNHYTQKSLSLSPGK
notes: as for B2
B5: IgG1 Fc-region with L234A/L235A/P329G and I253A/H310A/H435A in both Fc-region polypeptides (other)
chain: DKTHTCPPCPAPEAAGGPSVFLFPPKPKDTLMASRTPEVTCVVVDVSHEDPEVKFNWYVDGVEVHNAKTKPREEQYNSTYRVVSVLTVLAQDWLNGKEYKCKVSNKALGAPIEKTISKAKGQPREPQVYTLPPSRDELTKNQVSLTCLVKGFYPSDIAVEWESNGQPENNYKTTPPVLDSDGSFFLYSKLTVDKSRWQQGNVFSCSVMHEALHNAYTQKSLSLSPGK
notes: As m2; Positions are EU numbers, not positions on the entry; also called IHH-AAA mutation
B6: IgG1 Fc-region with L234A/L235A/P329G and H310A/Y436A in both Fc-region polypeptides (other)
chain: DKTHTCPPCPAPEAAGGPSVFLFPPKPKDTLMISRTPEVTCVVVDVSHEDPEVKFNWYVDGVEVHNAKTKPREEQYNSTYRVVSVLTVLAQDWLNGKEYKCKVSNKALGAPIEKTISKAKGQPREPQVYTLPPSRDELTKNQVSLTCLVKGFYPSDIAVEWESNGQPENNYKTTPPVLDSDGSFFLYSKLTVDKSRWQQGNVFSCSVMHEALHNHATQKSLSLSPGK
notes: as for B2

Each molecule was assayed against T1, human neonatal Fc-receptor (FcRn) (human, UniProt P55899 24-297; P61769 21-119, limits assumed, biotinylated (site not stated), coupled to streptavidin sepharose) (assay: FcRn affinity chromatography).
T1 construct: also called FcRn receptor
T1 sequence (P55899 24-297 limits assumed, chain 1 of 2): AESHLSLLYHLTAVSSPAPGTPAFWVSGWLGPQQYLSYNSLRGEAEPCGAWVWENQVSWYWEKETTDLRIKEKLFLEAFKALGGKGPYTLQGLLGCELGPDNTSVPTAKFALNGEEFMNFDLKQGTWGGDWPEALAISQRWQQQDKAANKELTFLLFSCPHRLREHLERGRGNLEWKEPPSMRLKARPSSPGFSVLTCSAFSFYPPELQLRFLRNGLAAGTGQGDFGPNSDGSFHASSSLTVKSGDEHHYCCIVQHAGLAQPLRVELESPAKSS
T1 sequence (P61769 21-119 limits assumed, chain 2 of 2): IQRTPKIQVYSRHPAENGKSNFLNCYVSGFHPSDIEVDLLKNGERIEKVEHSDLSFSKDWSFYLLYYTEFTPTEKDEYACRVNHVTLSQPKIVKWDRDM

| Molecule | binding result |
| --- | --- |
| B1 | no binding (tested: retention time below 3 minutes) |
| B2 | no binding (tested: retention time below 3 minutes) |
| B3 | no binding (tested: retention time below 3 minutes) |
| B4 | no binding (tested: retention time below 3 minutes) |
| B5 | no binding (tested: retention time below 3 minutes) |
| B6 | no binding (tested: retention time below 3 minutes) |

What follows are molecules tested against T1, human neonatal Fc-receptor (FcRn) (assay: FcRn affinity chromatography, anti-HER2 antibody).

| Molecule | retention time [min] |
| --- | --- |
| anti-HER2 antibody symmetrically modified with E258H | 45.6 |
| anti-HER2 antibody symmetrically modified with E430H | 46.4 |
| anti-HER2 antibody symmetrically modified with K288E | 45.2 |
| anti-HER2 antibody symmetrically modified with K290H | 46.2 |
| anti-HER2 antibody symmetrically modified with K317H | 46.3 |
| anti-HER2 antibody symmetrically modified with L309H | 45.5 |
| anti-HER2 antibody symmetrically modified with N434H | 52 |
| anti-HER2 antibody symmetrically modified with Q311H | 46.3 |
| anti-HER2 antibody symmetrically modified with R255D | 41.4 |
| anti-HER2 antibody symmetrically modified with T256H | 46 |
| anti-HER2 antibody, wild-type | 46.3 |
